Results on nine substances are retold here after patent publication US20120190623A1.

Test [1] has as its target A1/A3-C1-C2 heterodimer of thrombin-cleaved FVIII (human) (UniProt P00451). Kind of test: optical biosensor, purified protein after thrombin cleavage.
Test [2] deals with IR8 (90/b/73 R336I/R562K/R740A; del795-1688/Arg336Iso/Arg562Lys/Arg740Ala) (human) (UniProt P00451). Kind of test: cell-based or functional assay.
The target of test [3] is wild-type factor VIII (FVIII WT) (human) (UniProt P00451). Kind of test: cell-based or functional assay.
Test [4] addresses von Willebrand factor (vWF) (human) (UniProt P04275). Kind of test: FVIII-vWF binding ELISA, anti-A2 domain trap, vWF from FVIII-deficient plasma, anti-vWF-HRP detection, no ESH8. (ELISA stands for enzyme-linked immunosorbent assay.)
Test [5] shares this target. Kind of test: biosensor (SPR), IR8 captured on immobilized anti-fVIII antibody; without ESH8.
The target is the same in test [6]. Kind of test: ELISA and affinity biosensor analysis.
Test [7] shares this target. Kind of test: summary of ELISA and biosensor results.
Test [8] concerns the target vWF (human) (UniProt P04275). Kind of test: biosensor (SPR), IR8 captured on immobilized anti-fVIII antibody; with ESH8.
The target of test [9] is von Willebrand factor (vWF) (human) (UniProt P04275). The test can be described thus: FVIII-vWF binding ELISA, anti-A2 domain trap, vWF from FVIII-deficient plasma, anti-vWF-HRP detection, with ESH8.
Test [10] has the same target. Kind of test: in vitro binding to vWF, method not named in the sentence (ELISA / affinity biosensor).
The target of test [11] is vWF (human) (UniProt P04275). Kind of test: biosensor (SPR), fVIII captured on immobilized anti-fVIII antibody.
Test [12] has as its target IR8 (90/b/73 R336I/R562K/R740A; del795-1688/Arg336Iso/Arg562Lys/Arg740Ala) (human) (UniProt P00451). Kind of test: optical biosensor; IR8 captured on immobilized Mab NMC-VIII/5, vWF added at 10 nM.
Test [13] shares this target. The test can be described thus: optical biosensor; IR8 (30 nM) captured on immobilized Mab NMC-VIII/5, vWF added at 10 nM.

As usually defined, the Kd is the equilibrium constant for the complex coming apart. Read a low Kd as tighter binding. What is called koff is the first-order rate constant of dissociation. The term kon denotes a measure of how fast the partners come together. Read a low kon as slower complex formation.

Chain of IR8 (90/b/73 R336I/R562K/R740A; del795-1688/Arg336Iso/Arg562Lys/Arg740Ala) (human) (P00451 other isoform, or with tags, fused parts or gaps R336I R562K R740A R562K R740A R336I R562K R740A R562K R740A, form in doubt): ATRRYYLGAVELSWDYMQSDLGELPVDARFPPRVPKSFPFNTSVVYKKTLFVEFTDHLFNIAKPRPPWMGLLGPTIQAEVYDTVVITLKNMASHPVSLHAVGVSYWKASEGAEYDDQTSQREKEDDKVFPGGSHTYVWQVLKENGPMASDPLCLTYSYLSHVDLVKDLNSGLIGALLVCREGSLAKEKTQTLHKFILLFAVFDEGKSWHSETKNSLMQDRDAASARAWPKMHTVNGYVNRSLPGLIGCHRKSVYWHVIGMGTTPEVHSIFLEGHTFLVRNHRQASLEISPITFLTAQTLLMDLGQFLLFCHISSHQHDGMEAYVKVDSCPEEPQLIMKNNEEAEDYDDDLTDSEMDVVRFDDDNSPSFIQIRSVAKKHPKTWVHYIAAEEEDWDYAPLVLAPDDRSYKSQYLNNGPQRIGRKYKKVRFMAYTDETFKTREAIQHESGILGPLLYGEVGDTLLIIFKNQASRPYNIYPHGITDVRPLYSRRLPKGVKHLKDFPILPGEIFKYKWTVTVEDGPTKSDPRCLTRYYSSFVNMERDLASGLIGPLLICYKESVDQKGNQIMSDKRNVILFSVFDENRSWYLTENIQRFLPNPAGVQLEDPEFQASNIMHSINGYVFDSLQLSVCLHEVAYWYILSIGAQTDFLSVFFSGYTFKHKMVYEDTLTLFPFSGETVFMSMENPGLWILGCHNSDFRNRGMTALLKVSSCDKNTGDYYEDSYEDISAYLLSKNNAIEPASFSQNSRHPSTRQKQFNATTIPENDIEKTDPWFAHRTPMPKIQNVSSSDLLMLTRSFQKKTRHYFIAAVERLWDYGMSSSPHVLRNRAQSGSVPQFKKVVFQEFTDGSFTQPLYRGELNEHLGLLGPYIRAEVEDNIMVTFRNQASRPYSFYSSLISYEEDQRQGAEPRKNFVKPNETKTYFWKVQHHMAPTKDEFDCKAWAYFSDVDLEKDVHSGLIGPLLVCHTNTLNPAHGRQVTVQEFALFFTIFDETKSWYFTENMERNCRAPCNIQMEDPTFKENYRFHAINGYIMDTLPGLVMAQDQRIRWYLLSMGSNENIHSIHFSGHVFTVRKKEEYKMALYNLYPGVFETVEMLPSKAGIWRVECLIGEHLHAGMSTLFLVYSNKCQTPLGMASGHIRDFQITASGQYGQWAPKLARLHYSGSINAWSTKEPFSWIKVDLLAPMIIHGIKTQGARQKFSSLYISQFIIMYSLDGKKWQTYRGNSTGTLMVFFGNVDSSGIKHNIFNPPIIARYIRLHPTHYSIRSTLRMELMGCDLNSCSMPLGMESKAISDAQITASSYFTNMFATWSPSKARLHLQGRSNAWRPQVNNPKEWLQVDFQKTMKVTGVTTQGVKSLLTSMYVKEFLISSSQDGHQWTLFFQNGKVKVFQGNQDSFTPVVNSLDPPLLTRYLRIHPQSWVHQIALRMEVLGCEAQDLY
Chain of A1/A3-C1-C2 heterodimer of thrombin-cleaved FVIII (human) (P00451 20-391, chain 1 of 2): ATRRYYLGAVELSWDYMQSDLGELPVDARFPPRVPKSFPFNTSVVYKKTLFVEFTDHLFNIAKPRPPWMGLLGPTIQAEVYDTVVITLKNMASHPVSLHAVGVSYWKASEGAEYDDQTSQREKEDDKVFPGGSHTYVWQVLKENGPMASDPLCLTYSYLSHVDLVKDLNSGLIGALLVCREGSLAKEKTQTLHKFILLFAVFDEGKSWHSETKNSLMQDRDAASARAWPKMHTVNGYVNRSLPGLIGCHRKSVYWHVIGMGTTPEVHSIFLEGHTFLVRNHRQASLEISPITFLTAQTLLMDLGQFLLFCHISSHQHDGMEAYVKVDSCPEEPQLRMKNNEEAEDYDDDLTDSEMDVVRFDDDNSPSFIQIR
Chain of A1/A3-C1-C2 heterodimer of thrombin-cleaved FVIII (human) (P00451 1709-2351, chain 2 of 2): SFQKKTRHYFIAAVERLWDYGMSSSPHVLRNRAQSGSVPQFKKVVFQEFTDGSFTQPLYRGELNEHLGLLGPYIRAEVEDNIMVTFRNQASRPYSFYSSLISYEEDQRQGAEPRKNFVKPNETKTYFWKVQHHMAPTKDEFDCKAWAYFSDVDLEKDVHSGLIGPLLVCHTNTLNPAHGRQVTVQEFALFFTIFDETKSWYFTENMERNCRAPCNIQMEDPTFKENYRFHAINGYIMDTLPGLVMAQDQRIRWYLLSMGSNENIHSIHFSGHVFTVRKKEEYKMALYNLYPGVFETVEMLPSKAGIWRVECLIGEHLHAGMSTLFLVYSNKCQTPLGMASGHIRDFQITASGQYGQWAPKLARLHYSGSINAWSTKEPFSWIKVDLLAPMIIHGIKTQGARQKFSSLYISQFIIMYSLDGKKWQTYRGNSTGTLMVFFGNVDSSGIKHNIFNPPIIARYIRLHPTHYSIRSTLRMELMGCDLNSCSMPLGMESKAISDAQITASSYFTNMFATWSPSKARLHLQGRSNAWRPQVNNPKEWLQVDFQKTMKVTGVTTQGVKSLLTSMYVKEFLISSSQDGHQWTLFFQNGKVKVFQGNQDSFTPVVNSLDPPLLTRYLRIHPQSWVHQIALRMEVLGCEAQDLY
Chain of IR8/ESH8 (P00451 whole entry, one chain of several): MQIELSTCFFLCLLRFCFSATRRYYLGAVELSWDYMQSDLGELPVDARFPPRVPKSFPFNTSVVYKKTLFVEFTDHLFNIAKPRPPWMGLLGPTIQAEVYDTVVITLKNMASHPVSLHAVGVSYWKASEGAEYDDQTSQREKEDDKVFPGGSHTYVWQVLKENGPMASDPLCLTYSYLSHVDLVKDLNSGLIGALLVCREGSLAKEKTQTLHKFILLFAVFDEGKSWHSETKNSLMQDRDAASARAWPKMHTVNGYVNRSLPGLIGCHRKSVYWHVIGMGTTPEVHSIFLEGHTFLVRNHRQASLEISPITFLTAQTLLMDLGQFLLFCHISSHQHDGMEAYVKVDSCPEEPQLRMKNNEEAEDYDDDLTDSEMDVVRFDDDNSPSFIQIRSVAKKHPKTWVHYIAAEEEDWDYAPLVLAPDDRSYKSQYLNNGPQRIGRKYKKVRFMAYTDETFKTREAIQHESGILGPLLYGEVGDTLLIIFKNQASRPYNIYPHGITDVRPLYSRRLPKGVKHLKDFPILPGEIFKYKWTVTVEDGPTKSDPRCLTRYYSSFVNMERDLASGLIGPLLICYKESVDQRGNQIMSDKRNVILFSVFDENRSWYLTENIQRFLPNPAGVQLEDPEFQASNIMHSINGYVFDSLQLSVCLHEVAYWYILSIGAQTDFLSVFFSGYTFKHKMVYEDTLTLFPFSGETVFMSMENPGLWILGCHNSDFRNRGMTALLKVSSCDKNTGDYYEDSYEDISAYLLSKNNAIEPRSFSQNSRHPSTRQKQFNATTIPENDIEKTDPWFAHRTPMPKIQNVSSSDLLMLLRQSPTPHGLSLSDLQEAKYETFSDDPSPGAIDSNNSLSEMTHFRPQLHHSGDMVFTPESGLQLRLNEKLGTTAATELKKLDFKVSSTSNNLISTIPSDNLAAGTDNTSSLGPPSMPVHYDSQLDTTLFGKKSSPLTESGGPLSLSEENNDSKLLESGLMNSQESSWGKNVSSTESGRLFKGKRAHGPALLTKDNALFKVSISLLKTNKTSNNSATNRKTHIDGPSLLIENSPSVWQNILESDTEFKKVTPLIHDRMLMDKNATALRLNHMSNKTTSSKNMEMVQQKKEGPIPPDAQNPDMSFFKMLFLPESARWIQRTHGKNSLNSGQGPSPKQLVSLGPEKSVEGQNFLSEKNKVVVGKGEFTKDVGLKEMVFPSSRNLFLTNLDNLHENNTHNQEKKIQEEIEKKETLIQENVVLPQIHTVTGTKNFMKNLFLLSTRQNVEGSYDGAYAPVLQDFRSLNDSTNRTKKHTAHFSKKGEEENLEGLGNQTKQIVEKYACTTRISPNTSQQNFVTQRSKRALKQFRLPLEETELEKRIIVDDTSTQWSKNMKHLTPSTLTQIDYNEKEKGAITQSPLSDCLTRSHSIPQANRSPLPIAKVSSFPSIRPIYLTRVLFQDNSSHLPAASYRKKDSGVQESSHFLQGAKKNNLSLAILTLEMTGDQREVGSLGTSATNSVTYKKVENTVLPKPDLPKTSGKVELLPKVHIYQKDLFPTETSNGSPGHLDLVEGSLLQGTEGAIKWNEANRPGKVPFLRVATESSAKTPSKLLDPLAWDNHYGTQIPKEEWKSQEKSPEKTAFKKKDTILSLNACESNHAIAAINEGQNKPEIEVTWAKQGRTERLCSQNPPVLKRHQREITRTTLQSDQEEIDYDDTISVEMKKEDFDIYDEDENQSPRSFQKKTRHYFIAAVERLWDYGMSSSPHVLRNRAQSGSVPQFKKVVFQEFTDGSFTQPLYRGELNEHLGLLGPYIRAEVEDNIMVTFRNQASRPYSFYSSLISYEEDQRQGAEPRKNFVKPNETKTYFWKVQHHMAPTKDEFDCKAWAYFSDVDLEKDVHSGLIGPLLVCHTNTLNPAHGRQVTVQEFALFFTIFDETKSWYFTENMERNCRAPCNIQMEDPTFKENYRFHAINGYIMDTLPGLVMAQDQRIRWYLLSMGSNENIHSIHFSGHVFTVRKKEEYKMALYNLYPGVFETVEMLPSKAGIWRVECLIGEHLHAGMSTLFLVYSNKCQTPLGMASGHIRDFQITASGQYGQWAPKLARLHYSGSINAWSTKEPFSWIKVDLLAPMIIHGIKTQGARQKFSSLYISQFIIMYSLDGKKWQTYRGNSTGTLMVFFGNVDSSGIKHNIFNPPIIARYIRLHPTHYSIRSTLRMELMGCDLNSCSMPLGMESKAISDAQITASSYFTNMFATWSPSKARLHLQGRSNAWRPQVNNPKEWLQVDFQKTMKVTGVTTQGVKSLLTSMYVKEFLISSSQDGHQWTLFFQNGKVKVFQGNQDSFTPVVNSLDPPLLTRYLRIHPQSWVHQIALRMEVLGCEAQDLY

In the case of “A2 subunit of thrombin-cleaved R698L B-domainless FVIII (from UniProt P00451 392-759)”, the fold increased rate of A2 subunit dissociation compared to a B domainless FVIII control in [1] is 2 fold. Same read-out and setting: the value for “A2 subunit of thrombin-cleaved R698W B-domainless FVIII (from UniProt P00451 392-759)” was 3 fold. Turning to “ESH8, anti-light chain factor VIII mouse monoclonal antibody”, the % Of Initial Activity (APTT, 4 hour incubation at 37 C with FVIII-deficient plasma), + ESH8 (% of initial activity) in test [2] was 120; in test [3] it was 29.

In turn, “IR8 (90/b/73 R336I/R562K/R740A; del795-1688/Arg336Iso/Arg562Lys/Arg740Ala) (from UniProt P00451 20-759; P00451 1708-2351)” yielded a fold lower binding affinity compared to wild-type FVIII in [4] of 10 fold. The substance further yielded a Kd in test [5] of 10.5 nM. Moreover, in [6], the fold reduced affinity compared to rFVIII is 20 fold. The fold lower affinity than FVIII WT in [7] came to 10 fold. Regarding “IR8/ESH8 (from UniProt P00451 20-759; P00451 1708-2351)”, the koff in [8] was 0.0025 s⁻¹.

Turning to “IR8/ESH8 complex (from UniProt P00451 20-759; P00451 1708-2351)”, in test [9], the fold lower binding affinity compared to wild-type FVIII turned out to be 2 fold. This substance also showed a dissociation constant (Kd) in [10] of 1.3 nM. With pdfVIII, the dissociation constant (Kd) in [11] came to 0.31 nM. For “von Willebrand factor (vWF) (from UniProt P04275 764-2813)”, in test [12], the Kd was 29.6 nM and the off-rate constant (koff) was found to be 0.0042 s⁻¹. The on-rate (kon) in test [13] worked out at 140000 M⁻¹ s⁻¹. In turn, “wild-type factor VIII (FVIII WT) (from UniProt P00451 20-2351)” had a Kd in test [10] of 0.3 nM.
